In the DeepSol protein solubility set:

Experiment: soluble on expression in E. coli; label from the status in PepcDB or PDB records

Question: For “SLPNASRVVIVAGEESGDHHAAELVKQLKAVYPDLEISGIGGKHLRAAGVHLISDLTRYAVTGLTEIIPFLKIFRKAFQDIKQHLSTQKPDLLILVDYPAFNLRLAKYAKKKLGLKIIYYISPQIWAWKGKRIHLIKDCIDKMAVIFPFEKTIYENAGVPVSFVGHPLVKKIAAAKDKHSSRTSLGLPLNEPIIALLPGSRHSEIERHIPILVNTAKLLTLDSPKLRFVVPIAGTINPDKVKAYFSNQNLTVTFIQGQAIECMSAADFVIVASGTASLECALLEKPMCIIYKSSFLTYVAAMYFIKVKFLGLCNLLANKMMVPEFLQYDCNAIELSRYISNFHNNPNQPESMINQLAKLKESLSSSQADCSLFDLVVAELPEKNA”, which “soluble on expression in E. coli” value is on record?
Answer: not soluble

Question: Which “soluble on expression in E. coli” value does the source give for “SKNGLKKRKLTNPVQLDDFDGYIKDMAKDSDYKFSLQFEELKLIGLDIPHFAADLPMNRCKNRYTNILPYDFSRVRLVSMNEEEGSDYINANYIPGYNSPQEYIATQGPLPETRNDFWKMVLQQKSQIIVMLTQCNEKRRVKCDHYWPFTEDPIAYGDITVEMLSEEEHTDWVYRNFRISYADEVQDVMHFNYTAWPDHGVPTANAAESILQFVQMVRQKSVKSKGPMIIHCSAGVGRTGTFIALDWLLQHIRDHEFVDILGLVSDMRSYRMSMVQTEEQYIFIHQCVQLMWQKKKQQFCISDVIYENVSKS” here?
Answer: soluble

Question: Which “soluble on expression in E. coli” value does the source give for “MSPLPIIEVMPKLLSGITNSPQLILKAAPGAGKSTYFPLQLLQAGGFHGKIIMLEPRRLAARNIARYLAQQLGEEVGQRVGYRVRGENRVSRATQLEIVTEGIMTRMLQNDPELDGVDVLIFDEFHERSIHADTALALALEVQSALREDLKIVVMSATLDQQALQNLLPQASYVESQGRGFPIEIRYQPLRSDEPLVTAMQRQIRHLLQHETGSLLAFLPGAASINQLTEQLSDLASEVEICPLYGQMEFAAQQRAIAPTAAGRRKVVLATNIAETSLTIEGIRIVLDSGLERSARFDLKTGITRLEQVRIAQSSAEQRAGRAGRLEPGICVRLYSEAQLKQQPWVPEPEMLHTDLAPLALELAQWGAQPSDLAWLNLPPSSAFAQAQQLLQRLGLLDARTQITAAGKEAHLLGVEPRIAAMLLSADRLGESALQSALALTVLLEEPERQVIDVQHSLHRWQQGRHPKQKLLIQRAQSLAHKLDTAFSLSSVDSAWLPLVACLAFPDRIAQQRGQQTGQFLLANGHGAWLAVEDRLSAADYLVALDLMRGQTQASQIFSALELDIHALERVLPALISRVEQVDWDEKAGRLSAEAQWRIDQLVLRREKLPEPDKQKMTQALLSYVRRKGLTVLQWSEDASEWLARARCAAEWLPEEAWPALDDETLLARLELWLEPYLAGVTSVKGLQSVSVLQALKHYLGWELSQQLDEWLPTHHLLPTGNHKKIRYQLGMEPTLSVRMQEVFGEQSSPRVAKGTRAVVMELLSPAQRPLQVTRDLASFWAGAYKEVQKEMKGRYPKHVWPDDPANHVATSKTKRQLNA” here?
Answer: soluble

Question: With “MGSDKIHHHHHHMFDDADDIDTETVEEWEASAEFGLLYTSGNTETESLKGKFTASRDVQNWRHKGVFDYYTSEQKDQDTGEMNETADRIFISAQSNYKFDPDSRDSLFVFGSYEEDEFSGFAYQATVATGYGARYRYDEDIYADYEIGPGYSRTKPVQVEGEPPVESDGSMILRLAGSLNWKISENSRFSALLSSEVGEDNTKSKAELSVSANINSALAMKVSLGANHNSHVADESIEKLDTETAVTLVYSF” as the sequence, how does the “soluble on expression in E. coli” value read?
Answer: not soluble

Question: For “SNRLGIPALSGDTLSLLNTPSEILNAIISDIEKAEHEINMEFYIWHHGGLADSVASALIVAAKRGVTVNVLLDSAGSMDFFKSHWPKLLKQSGVNIVEALSVSPFRMFFRRLDLRLHRKIVVIDNRIAYTGSMNLVDPQYFKQNSGVGQWIDVMVRLTGPNVAILNTIHAWDWEVETGIRELPHLPECPASIDPFNHTTQVVPSGPGMPDDIIQQV”, which “soluble on expression in E. coli” value is on record?
Answer: not soluble
